The source of these data is patent US20030143595A1 (Harvard, published 2003).

For this assay, the target named is T1, murine HIP polypeptide (mouse hedgehog interacting protein) (mouse, UniProt Q7TN16 16-700).
T1 construct: In the expression cloning screen the protein was expressed in cells from a mouse limb bud cDNA library plasmid; also called Mouse HIP; mouse HIP clone
T1 sequence: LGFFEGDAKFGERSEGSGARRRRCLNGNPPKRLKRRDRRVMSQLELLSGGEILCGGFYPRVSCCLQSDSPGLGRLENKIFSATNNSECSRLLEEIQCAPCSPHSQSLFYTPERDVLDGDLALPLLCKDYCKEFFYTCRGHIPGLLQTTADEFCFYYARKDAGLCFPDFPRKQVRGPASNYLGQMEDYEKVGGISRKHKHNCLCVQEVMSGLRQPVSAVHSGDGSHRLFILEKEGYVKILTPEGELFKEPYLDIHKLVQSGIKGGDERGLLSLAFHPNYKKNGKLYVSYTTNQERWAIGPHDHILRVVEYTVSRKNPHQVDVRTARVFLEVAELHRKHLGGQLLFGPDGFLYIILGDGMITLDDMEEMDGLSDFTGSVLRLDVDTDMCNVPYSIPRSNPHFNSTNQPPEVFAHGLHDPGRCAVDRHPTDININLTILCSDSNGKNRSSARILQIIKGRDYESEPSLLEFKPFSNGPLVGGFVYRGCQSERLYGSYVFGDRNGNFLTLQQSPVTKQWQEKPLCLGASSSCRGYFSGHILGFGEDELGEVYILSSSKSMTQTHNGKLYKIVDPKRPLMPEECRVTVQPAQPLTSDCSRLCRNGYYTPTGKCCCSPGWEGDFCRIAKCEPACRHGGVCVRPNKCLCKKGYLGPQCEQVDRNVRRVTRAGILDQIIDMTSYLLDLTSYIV
The assay is described as follows: ligand-receptor binding study.

B1: Desert hedgehog (Dhh) (ligand)
chain: not shown
For orientation: Kd means the constant that tells how readily two partners part at equilibrium. A low value points to a tighter complex. B1 had a dissociation constant Kd of about 1 nM.
